The test has as its target T1, ZCCHC6 (human, UniProt Q5VYS8 1-1495, limits assumed).
T1 sequence (looked up): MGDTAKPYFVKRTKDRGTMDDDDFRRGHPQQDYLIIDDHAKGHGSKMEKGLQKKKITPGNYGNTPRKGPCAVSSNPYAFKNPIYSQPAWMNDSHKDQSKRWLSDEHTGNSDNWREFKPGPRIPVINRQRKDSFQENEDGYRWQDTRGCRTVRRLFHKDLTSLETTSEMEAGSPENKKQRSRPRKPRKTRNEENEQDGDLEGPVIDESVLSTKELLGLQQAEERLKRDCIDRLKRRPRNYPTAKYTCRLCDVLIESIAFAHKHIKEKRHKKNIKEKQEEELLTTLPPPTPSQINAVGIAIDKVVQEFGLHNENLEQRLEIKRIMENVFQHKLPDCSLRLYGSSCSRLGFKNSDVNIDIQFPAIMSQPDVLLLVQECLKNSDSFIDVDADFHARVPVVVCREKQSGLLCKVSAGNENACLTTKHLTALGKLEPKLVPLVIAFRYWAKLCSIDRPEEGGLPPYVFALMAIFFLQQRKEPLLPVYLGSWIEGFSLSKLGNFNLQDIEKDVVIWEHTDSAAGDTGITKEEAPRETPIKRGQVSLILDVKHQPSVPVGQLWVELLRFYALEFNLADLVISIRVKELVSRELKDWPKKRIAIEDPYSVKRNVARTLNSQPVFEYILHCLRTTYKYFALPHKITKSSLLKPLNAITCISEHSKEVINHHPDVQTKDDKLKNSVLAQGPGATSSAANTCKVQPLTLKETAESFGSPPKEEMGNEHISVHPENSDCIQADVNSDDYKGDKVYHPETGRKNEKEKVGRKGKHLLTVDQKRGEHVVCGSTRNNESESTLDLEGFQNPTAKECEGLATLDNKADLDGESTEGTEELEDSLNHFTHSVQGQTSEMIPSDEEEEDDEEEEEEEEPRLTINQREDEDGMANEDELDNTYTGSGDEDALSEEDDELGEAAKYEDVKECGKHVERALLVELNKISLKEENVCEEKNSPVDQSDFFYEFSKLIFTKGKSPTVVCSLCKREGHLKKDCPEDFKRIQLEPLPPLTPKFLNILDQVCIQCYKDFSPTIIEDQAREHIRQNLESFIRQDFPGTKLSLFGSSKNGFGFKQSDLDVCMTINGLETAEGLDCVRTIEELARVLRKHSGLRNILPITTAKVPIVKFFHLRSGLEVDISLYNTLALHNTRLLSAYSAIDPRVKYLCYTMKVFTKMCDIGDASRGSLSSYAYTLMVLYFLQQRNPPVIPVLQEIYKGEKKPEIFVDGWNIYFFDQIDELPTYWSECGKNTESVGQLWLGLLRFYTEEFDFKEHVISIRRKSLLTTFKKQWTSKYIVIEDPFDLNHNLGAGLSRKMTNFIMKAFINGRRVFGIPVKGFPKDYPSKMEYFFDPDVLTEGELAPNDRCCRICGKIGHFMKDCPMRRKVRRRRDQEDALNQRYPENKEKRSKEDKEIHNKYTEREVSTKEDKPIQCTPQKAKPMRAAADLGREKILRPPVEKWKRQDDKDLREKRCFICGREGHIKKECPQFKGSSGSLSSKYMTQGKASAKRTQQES
Kind of test: IP/MS, LZTR1 R810W-FLAG, U87. The procedure, abridged:
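Gel slices were reduced with 5 mM DTT, alkylated with 11 mM IAA and digested overnight at 37° C. with trypsin. Peptides were analysed on an Orbitrap Fusion Tribrid by LC-MS/MS.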

This is an account of results in patent publication US20250262210A1 (TRUSTEES OF COLUMBIA UNIVERSITY IN THE CITY OF NEW YORK, published 2025).

B1: LZTR1 R810W-FLAG (other, human, UniProt Q8N653 1-840, looked up)
chain: MAGPGSTGGQIGAAALAGGARSKVAPSVDFDHSCSDSVEYLTLNFGPFETVHRWRRLPPCDEFVGARRSKHTVVAYKDAIYVFGGDNGKTMLNDLLRFDVKDCSWCRAFTTGTPPAPRYHHSAVVYGSSMFVFGGYTGDIYSNSNLKNKNDLFEYKFATGQWTEWKIEGRLPVARSAHGATVYSDKLWIFAGYDGNARLNDMWTIGLQDRELTCWEEVAQSGEIPPSCCNFPVAVCRDKMFVFSGQSGAKITNNLFQFEFKDKTWTRIPTEHLLRGSPPPPQRRYGHTMVAFDRHLYVFGGAADNTLPNELHCYDVDFQTWEVVQPSSDSEVGGAEVPERACASEEVPTLTYEERVGFKKSRDVFGLDFGTTSAKQPTQPASELPSGRLFHAAAVISDAMYIFGGTVDNNIRSGEMYRFQFSCYPKCTLHEDYGRLWESRQFCDVEFVLGEKEECVQGHVAIVTARSRWLRRKITQARERLAQKLEQEAAPVPREAPGVAAGGARPPLLHVAIREAEARPFEVLMQFLYTDKIKYPRKGHVEDVLLIMDVYKLALSFQLCRLEQLCRQYIEASVDLQNVLVVCESAARLQLSQLKEHCLNFVVKESHFNQVIMMKEFERLSSPLIVEIVRRKQQPPPRTPLDQPVDIGTSLIQDMKAYLEGAGAEFCDITLLLDGHPRPAHKAILAARSSYFEAMFRSFMPEDGQVNISIGEMVPSRQAFESMLRYIYYGEVNMPPEDSLYLFAAPYYYGFYNNRLQAYCKQNLEMNVTVQNVLQILEAADKTQALDMKRHCLHIIVHQFTKVSKLPTLWSLSQQLLLDIIDSLASHISDKQCAELGADI
notes: Stably expressed in U87 cells by lentivirus; also called LZTR1-FLAG-R810W; LZTR1 RW; not shown: FLAG tag
For B1, the binding result is “binds”.
